Results: the DeepSol protein solubility set

Experiment: soluble on expression in E. coli; label from the status in PepcDB or PDB records

Row | Sequence | soluble on expression in E. coli
1 | MSLAKALSLMLAQLNLTVGAIEDNCDKVLAAAAEADRQGADLLVCSELALTGYPPEDLLLRVDLMIRVEAALARLAAWQGACAILVGHPWRDGEALYNAASLYEQGKLVARYFKQDLPNYGVFDEKRYFTAATETCVVPFRGHQLGLLICEDLWQPGPALAAKAAGAELLLTINASPYDQEKPWIRRELMAERCDQTGLPLVYLNQVCGQDELIFDGCSKVFNSQGELTHKLAPFAEELALVRFADGQPVKEREPAAPLEPLAETYQALVLAVRDYVTKNGFHGAVLGLSGGIDSALTLAIAADAIGADKVQAVMMPFRYTAQMSVEDAKEQAERMGVEFNIISIEPMFEGFMAQLAPLFEGTARDTTEENLQARCRGVLLMALSNKRRCIVLTTGNKSEMAVGYATLYGDMAGGFDVLKDVPKTLVFKLCEYRNSVDYVIPQRVIDRPPSAELAPDQVDQDSLPPYDILDAILKRYVEEDASVADMVAEGFEEAVVRKVIRLVDLNEYKRRQAAVGPRITARNFGKDRRYPITSGFGKQNWEGHHHHHH | soluble
2 | MSLAMLMLLAACSERSADWSLYNVKGHLPDLKFSLPGAHGKTVSSDDLKGKTVLLFFGYASCPDVCPTTMAQLTAVLQQLGEQARDVRILFVSVDPHRDTPDILQAYVNAFNNNAIGVTGNEKQIADLARRYRLAYQIEKPKPGDDADIYDVTHSRGVYIFDNQGKARLLASDTDTIDTMVKDLRQLIAQTQEGHHHHHH | soluble
3 | MSLAPFVAKDIRVDGVQGDLEQQIRASLPVRAGQRVTDNDVANIVRSLFVSGRFDDVKAHQEGDVLVVSVVAKSIISDVKIKGNSVIPTEALKQNLDANGFKVGDVLIREKLNEFAKSVKEHYASVGRYNATVEPIVNTLPNNRAEILIQINEDDKAKLASLTFKGNESVSSSTLQEQMELQPDSWWKLWGNKFEGAQFEKDLQSIRDYYLNNGYAKAQITKTDVQLNDEKTKVNVTIDVNEGLQYDLRSARIIGNLGGMSAELEPLLSALHLNDTFRRSDIADVENAIKAKLGERGYGSATVNSVPDFDDANKTLAITLVVDAGRRLTVRQLRFEGNTVSADSTLRQEMRQQEGTWYNSQLVELGKIRLDRTGFFETVENRIDPINGSNDEVDVVYKVKERNTGSINFGIGYGTESGISYQASVKQDNFLGTGAAVSIAGTKNDYGTSVNLGYTEPYFTKDGVSLGGNVFFENYDNSKSDTSSNYKRTTYGSNVTLGFPVNENNSYYVGLGHTYNKISNFALEYNRNLYIQSMKFKGNGIKTNDFDFSFGWNYNSLNRGYFPTKGVKASLGGRVTIPGSDNKYYKLSADVQGFYPLDRDHLWVVSAKASAGYANGFGNKRLPFYQTYTAGGIGSLRGFAYGSIGPNAIYAEYGNGSGTGTFKKISSDVIGGNAIATASAELIVPTPFVSDKSQNTVRTSLFVDAASVWNTKWKSDKNGLESDVLKRLPDYGKSSRIRASTGVGFQWQSPIGPLVFSYAKPIKKYENDDVEQFQFSIGGSFEGHHHHHH | not soluble
4 | MSLAQTNQAEVGEPAPNFTLQAADGDEHSLADFEGQYVVLEWLNFGCPFVGKHYGSGNMQRLQDTYTDEGVVWLSIVSSAPGKQGYYPPGEMVEQKKKHDGNMTAILMDPEGEVGKTYDATVTPHMYVISPEGELLYRGGIDDKPTTDEADIEGATNYVRMALDAAMNGEEVRPKRAEPYGCTIKYASKEGHHHHHH | soluble
5 | MSLARDYRWEGVPLKAYKTDGTHFRAITRQTLLGADEDERALGHQTRYFEIAPGGYSSLERHQHTHTVMILRGQGELILGDALHRIGRHDCIYIAPQTFHQFHASGDEPLGFLCIVDRERDRPRLPDDDELARMRALPGVGPKVRTEGHHHHHH | soluble
6 | MSLARQNYHDEVEAAVNKQINVELYASYVYLSMSAHFDRDDIALRNIAKFFKEQSDEERGHATELMRIQAVRGGRVAMQNIQKPEKDEWGTVLEAFEAALALERANNASLLKLHGIAEQRNDAHLTNYIQEKYLEEQVHSINEFARHIANIKRAGPGLGEYLFDKEEFSD | not soluble
7 | MSLARQVTAFNTGWQFKKGPFATDPMRAASQWDGKWETVEIPHTWNAMDMQVQSGSFYEGAGYYRKTQFFPHDLEGKRVFLRFEGVGACAEVYVNGKLAGTHKGGYSAFACEIGTALKLGAENEIIVKADNKARPDVIPVNQNLFGVYGGIYRPVWLIVTEQNNITVTDCASPGVYITQKDVSKKSADITVKVKLDNAGLQPAAVTLENTIYTQEGQKVGTHSRSFDLSPQGTQTYLSTFKLKNPHLWQGRKDPYLYKVVCRLMADGKVIDEVVQPLGVRKYEIVAGKGFFLNGEKYSMYGVTRHQDWWGLGSALKNEHHDFDLAAIMDVGATTVRFAHYQQSDYLYSRCDTLGLIIWAEIPCVNRVTGYETENAQSQLRELIRQSFNHPSIYVWGLHNEVYQPHEYTAALTRSLHDLAKTEDPDRYTVSVNGYGHMDHPVNLNADIQGMNRYFGWYEKKIQDIKPWVEQLEKDYPYQKLMLTEYGADANLAHQTEYLGDALNWGKPFYPETFQTKTHEYQWSIIKDHPYIIASYLWNMFDFAVPMWTRGGVPARNMKGLITFDRKTKKDSYFWYKANWSEEPVLYLTQREGHHHHHH | not soluble
8 | MSLARTNVMIAETFPEYLVDHNLIDCEVESLCNGMVRYEKRPARRRDGSVAEGLYNAWIIFNNPRQYNSYTTEMVKATILAFRRASVDREVNAVVFTGVGDKAFCTGGNTKEYAEYYAGNPQEYRQYMRLFNDMVSSILGCDRPVICRVNGMRIGGGQEIGMACDFSIAQDLAKFGQAGPKHGSAAIGGATDFLPIMIGCEQAMVSGTLCEPFSAHKAARLGIIADVVPALKVGGTFVANPTVVTDRFLDEYGRVVQGEFKTGADFKAGQARIKEGEVDLSLLDEKVEELCAKLLETFPECMTKSLEELRKPKLQAWNLNKENSRAWLALNMMNEARIGFRAFNEGTKETGREIDFVKLRRQLAEGTPWAEELIEEGHHHHHH | soluble
9 | MSLARVSGDAPAVSWETLDLHTAQPFGIARWTHSVYPRTFVTLTLDGRRGRGEAAPNAFYGETRGTVEAVLPLLAPALSDPWDWDGLHAALGARMPHDHPSVKCALEMAAVEWCAQAAGVPVWQLLGLSPTVLPESSYTVSLAPLPDMRRQAREAVGRGHRVLKVKLGTDQDEAILEALREEVPEVALRVDANAAWTRAQAKRMLGVLDAARVEFVEQPLAAGDLEGHAMLRGVSPVPIVADESLHHVGDVLALARAFDGVNLKLAKLGGPLQALRALRLARAHGMQVMMGCMIESSLGIAAAAHLAGLCDWADLDGALLLADDPYTGLDWTAGQLARPGGTGWGVTRRSEGHHHHHH | soluble
10 | MSLASGNTLTYGLVVPDISNPFFASMARALQREAFNHGRVLLLGDAGDDRQHEHDLINHLLRRQVDGLLYTSVDRHPWFDLIRNSGTPCVMIDTIDSHAGISAIRVNERDAACQATRHLLQHGYRELGIFVGPLTMLNAQDRLNGWRDALIEAGITPREEWIFEAPYTRKGGYQASQKMLQGPCPRAIFTSNEQQALGCLSALAEHQLRVPDDLAIICFNGTQQSEFSVPPLSAVEQPIDAMARQAIAMLATGTAQPELHEFAFQLHIRRSEGHHHHHH | soluble
11 | MSLAVERLFGTNGIRGIPNDDMSPDFAMSVGKAIGTYVSGEIAFGTDTRLTGDMIKNAVIAGILSTGISVIDLGVLPTPAIQYYSKKHGIYAVVITASHNPPQYNGIKVIDKDGTELERPGEEKIEEIFYSKAFRVVKWENIGRIRQVSDAIDIYINGVISNVDSDNIKSHAFKVLADAGNGAAYYSTPKLLEKLGCSITTLNANPDGRFTARNAEPVPENLVNLISLMKSGRFDLGIAHDGDADRAVFIDEKGNFIDGDRMLALITKYIAKAGDVVVTPVSSSDTIADICNAIGAKLIRTKVGAPIVARAMIDNGATIGGEENGGVIYGKHQYCRDGAMTVSLVLNLMASTNKKLSELISELPVYYLIKKKVERRVDWPSLARELKKGERVDETDGIKILKDDGWILIRPSGTEKILRIYAHSSDFELANKYCEQYIRKVNDIQDKLSEGHHHHHH | not soluble
